Results as given in paper PMC10167749.

Target: recombinant scavenger receptor cysteine-rich domain 1 of Gp340 (salivary agglutinin), expressed in insect cells (UniProt Q9UGM3)
Test: SPR; Biacore T200; iSRCR1 immobilised on a CM5 chip by amine coupling; analyte GtfB-CD 2-8 uM in 20 mM HEPES pH 7.4, 150 mM NaCl, 1 mM CaCl2, 20 ul/min; each concentration in triplicate; kinetic fit with Biacore Insight Evaluation software

Chain of recombinant scavenger receptor cysteine-rich domain 1 of Gp340 (salivary agglutinin), expressed in insect cells (Q9UGM3 20-2413): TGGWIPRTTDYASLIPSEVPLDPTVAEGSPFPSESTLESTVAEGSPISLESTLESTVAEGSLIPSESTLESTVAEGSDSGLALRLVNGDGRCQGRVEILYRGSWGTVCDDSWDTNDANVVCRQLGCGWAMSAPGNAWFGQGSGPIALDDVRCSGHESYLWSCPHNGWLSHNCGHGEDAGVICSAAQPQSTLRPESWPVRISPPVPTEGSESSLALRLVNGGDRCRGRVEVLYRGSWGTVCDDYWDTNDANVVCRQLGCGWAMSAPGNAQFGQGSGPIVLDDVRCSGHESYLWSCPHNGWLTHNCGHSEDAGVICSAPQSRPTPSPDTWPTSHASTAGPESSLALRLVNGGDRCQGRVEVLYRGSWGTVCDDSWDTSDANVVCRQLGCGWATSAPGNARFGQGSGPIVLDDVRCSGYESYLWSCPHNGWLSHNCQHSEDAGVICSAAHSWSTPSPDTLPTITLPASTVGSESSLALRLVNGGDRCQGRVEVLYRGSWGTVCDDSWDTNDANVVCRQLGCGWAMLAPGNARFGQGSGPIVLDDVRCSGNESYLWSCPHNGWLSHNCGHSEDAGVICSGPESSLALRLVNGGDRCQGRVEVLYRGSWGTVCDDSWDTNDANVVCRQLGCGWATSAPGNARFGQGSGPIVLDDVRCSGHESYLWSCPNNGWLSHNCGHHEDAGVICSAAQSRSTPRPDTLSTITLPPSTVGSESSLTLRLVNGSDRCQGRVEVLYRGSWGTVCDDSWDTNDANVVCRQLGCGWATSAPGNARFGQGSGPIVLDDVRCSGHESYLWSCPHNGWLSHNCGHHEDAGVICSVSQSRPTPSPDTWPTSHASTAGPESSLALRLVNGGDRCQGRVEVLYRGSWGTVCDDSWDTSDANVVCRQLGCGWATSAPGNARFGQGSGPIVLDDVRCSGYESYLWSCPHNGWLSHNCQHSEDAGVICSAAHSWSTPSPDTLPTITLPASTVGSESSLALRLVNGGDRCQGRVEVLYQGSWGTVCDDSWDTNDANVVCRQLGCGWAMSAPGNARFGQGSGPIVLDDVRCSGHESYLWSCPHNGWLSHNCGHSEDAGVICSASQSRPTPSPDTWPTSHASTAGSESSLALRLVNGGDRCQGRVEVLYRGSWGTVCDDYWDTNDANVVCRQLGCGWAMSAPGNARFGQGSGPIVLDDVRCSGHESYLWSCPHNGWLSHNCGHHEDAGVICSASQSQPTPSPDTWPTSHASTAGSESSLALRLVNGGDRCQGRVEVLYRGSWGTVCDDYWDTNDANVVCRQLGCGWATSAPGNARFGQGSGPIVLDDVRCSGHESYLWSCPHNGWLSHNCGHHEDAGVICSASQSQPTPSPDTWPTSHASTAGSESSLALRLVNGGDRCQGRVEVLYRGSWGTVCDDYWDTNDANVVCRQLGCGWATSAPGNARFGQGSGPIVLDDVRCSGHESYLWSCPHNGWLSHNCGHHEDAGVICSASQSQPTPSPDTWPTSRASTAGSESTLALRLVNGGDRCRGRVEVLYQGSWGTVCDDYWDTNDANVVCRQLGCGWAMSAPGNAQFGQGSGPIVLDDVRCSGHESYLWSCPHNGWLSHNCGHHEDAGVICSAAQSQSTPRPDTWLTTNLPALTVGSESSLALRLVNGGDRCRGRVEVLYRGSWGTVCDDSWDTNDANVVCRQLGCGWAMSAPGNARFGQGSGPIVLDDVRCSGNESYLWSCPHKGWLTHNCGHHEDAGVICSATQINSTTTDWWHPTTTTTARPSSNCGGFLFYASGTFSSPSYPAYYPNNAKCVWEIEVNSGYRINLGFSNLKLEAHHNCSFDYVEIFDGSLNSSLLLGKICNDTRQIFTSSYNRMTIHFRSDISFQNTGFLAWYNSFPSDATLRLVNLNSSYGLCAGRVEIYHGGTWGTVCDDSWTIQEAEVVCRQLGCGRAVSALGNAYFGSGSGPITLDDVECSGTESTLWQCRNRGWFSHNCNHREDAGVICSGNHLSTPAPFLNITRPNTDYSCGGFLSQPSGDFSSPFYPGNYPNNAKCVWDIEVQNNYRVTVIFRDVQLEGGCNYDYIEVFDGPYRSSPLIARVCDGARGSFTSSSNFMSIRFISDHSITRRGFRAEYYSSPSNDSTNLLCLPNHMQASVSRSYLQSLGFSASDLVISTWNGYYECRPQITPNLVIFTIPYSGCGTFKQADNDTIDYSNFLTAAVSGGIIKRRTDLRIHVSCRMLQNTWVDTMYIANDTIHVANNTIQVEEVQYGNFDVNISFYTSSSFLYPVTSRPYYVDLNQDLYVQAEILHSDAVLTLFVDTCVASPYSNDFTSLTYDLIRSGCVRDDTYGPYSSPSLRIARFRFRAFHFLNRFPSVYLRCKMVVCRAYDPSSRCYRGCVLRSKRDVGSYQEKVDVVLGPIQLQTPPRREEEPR

B1: catalytic domain of Streptococcus mutans (UA159) glucosyltransferase GtfB, residues 191-1051 (domain or fragment)
chain: LHFDETGAYTDTSIDTVNKDIVTTRSNLYKKYNQVYDRSAQSFEHVDHYLTAESWYRPKYILKDGKTWTQSTEKDFRPLLMTWWPSQETQRQYVNYMNAQLGINKTYDDTSNQLQLNIAAATIQAKIEAKITTLKNTDWLRQTISAFVKTQSAWNSDSEKPFDDHLQNGAVLYDNEGKLTPYANSNYRILNRTPTNQTGKKDPRYTADNTIGGYEFLLANDVDNSNPVVQAEQLNWLHFLMNFGNIYANDPDANFDSIRVDAVDNVDADLLQIAGDYLKAAKGIHKNDKAANDHLSILEAWSDNDTPYLHDDGDNMINMDNKLRLSLLFSLAKPLNQRSGMNPLITNSLVNRTDDNAETAAVPSYSFIRAHDSEVQDLIRDIIKAEINPNVVGYSFTMEEIKKAFEIYNKDLLATEKKYTHYNTALSYALLLTNKSSVPRVYYGDMFTDDGQYMAHKTINYEAIETLLKARIKYVSGGQAMRNQQVGNSEIITSVRYGKGALKATDTGDRTTRTSGVAVIEGNNPSLRLKASDRVVVNMGAAHKNQAYRPLLLTTDNGIKAYHSDQEAAGLVRYTNDRGELIFTAADIKGYANPQVSGYLGVWVPVGAAADQDVRVAASTAPSTDGKSVHQNAALDSRVMFEGFSNFQAFATKKEEYTNVVIAKNVDKFAEWGVTDFEMAPQYVSSTDGSFLDSVIQNGYAFTDRYDLGISKPNKYGTADDLVKAIKALHSKGIKVMADWVPDQMYAFPEKEVVTATRVDKFGKPVEGSQIKSVLYVADSKSSGKDQQAKYGGAFLEELQAKYPELFARKQISTGVPMDPSVKIKQWSAKYFNGTNILGRGAGYVLKDQATNTYFNISDNK
  koff: 0.00152 s⁻¹
  kon: 2990 M⁻¹ s⁻¹
